Results on 17 molecules are retold here after US20170052184A1 (published 2017).

Holding throughout (assay): EIA, captured mAb + biotin peptide
The target of experiment [1] is T1, HCV bt-141-161 (Peptide 2, HCVc 141-161) (Hepatitis C virus (numbering per HCV-1), biotin (carboxy-terminal per; N-terminal per)).
T1 peptide: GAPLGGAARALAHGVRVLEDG

The target in experiment [2] is T2, HCV bt-151-171 (Peptide 3, HCVc 151-171) (Hepatitis C virus (numbering per HCV-1), biotin (carboxy-terminal per; N-terminal per)).
T2 peptide: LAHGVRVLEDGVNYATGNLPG

The target in experiment [3] is T3, HCV bt-134-154 (Peptide 1, HCVc 134-154) (Hepatitis C virus (numbering per HCV-1), biotin (carboxy-terminal per; N-terminal per)).
T3 peptide: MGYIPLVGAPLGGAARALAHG

Substitutions are numbered along the chain they refer to.

B1: HCV 208B-395 (antibody, V domains shown)
VH: QVQLQQSGAGLAKPGASVKMSCKASGYTFTANKMHWTKQRPGQGLEWIGYIDPSSGYTQYNHKIQDKATLTADTSSSTAYMQLSSLTFEDSAVYYCTNFAYWGQGTLVTVSA
VL: DIVLTQSPATLSVTPGDRVSLSCRASQRIYNYLHWYQQKSHESPRLLIKYASQSISGIPSRFSGSGSGTDFILTINSVETEDFGMYFCQQSNSWPLTFGAGTKLELRR
On to B1, for which the “Reactivity (OD 492 nm)” value in experiment [1] came out at 0.13 OD units; in experiment [2], 3.69 OD units; in experiment [3] it was 0.54 OD units.

B2: HCV 208B-826 (antibody, V domains shown)
VH: DVQLVESGGGLVQAGGSRKLSCAASGFPFSSFGMHWVRQAPEKGLEWVASISSRTSKIYYADNLKGRFTISRDNPKNTLFLQMTSLGSEDTAMYYCVRSVFGNSYWFFDVWGAGTTVTVSS
VL: B1 VL with I48T
Take B2: the “Reactivity (OD 492 nm)” value in experiment [1] is 1.35 OD units; in experiment [2], 0.08 OD units; in experiment [3], 0.53 OD units.

B3: HCV 208A-207 (antibody, V domains shown)
VH: QGQLQQPGAEFVKPGASLKLSCRASGYTFTSYWIHWVKQRPGQGLEWIGEIDPSDSYINQNQKFRGKATLTVDKSSSTAYMELSGLTSEDSAVYYCARHYYGVLDSWGQGTTLTVSS
VL: B1 VL with I48T
Consider B3, for which the “Reactivity (OD 492 nm)” value in experiment [1] came to 0.17 OD units; in experiment [2] it was 0.08 OD units; in experiment [3], 1.24 OD units.

B4: HCV 208B-353 (antibody, V domains shown)
VH: EVQLVESGGDLVKPGGSLKLSCAASGFTFNHYGMSWVRQPPDKRLEWVATISSGGGYTYYPDSVKGRFTISRDNAKDTLSLQMSSLRSGDTAVYYCASLYGSLFAYWGQGTLVTVSA
VL: DIVMTQSQKFMSTTVGDRVRVTCKASQNVGTAVAWYQQKPGQSPKLLIYSASNRYTGVPDRFTGSGSGTDFTLTITNMQSEDLADYFCQQYSTYPLTFGSGAKLEIKR
For B4, the “Reactivity (OD 492 nm)” value in experiment [1] was found to be 2.47 OD units; in experiment [2] it was 0.07 OD units; in experiment [3], 0.07 OD units.

B5: HCV 208B-515 (antibody, V domains shown)
VH: QVQLQQPGAELVKPGASLKLSCRASGYTFTSYWIHWVKQRPGQGLEWIGEIDPSDSYTNYNQKFKGKATLTVDKSSRAAYMQLSSLTSEDSAVYYCARHYYGVFDSWGQGTKLTVSS
VL: QIVFTQYPAIMSASLGERVTMTCTASSSVTSSYLHWFQQKPGSSPKLWIYSTSNPGSGVPARFSGRGSGTSYSLSISSMEAEDAATYYCLQFHRSPWTFGGGTKLEIRR
As for B5, the results for the “Reactivity (OD 492 nm)” value in experiment [1], in experiment [2] and in experiment [3] were 0.13 OD units, 0.06 OD units and 0.51 OD units, respectively.

B6: HCV 208B-911 (antibody, V domains shown)
VH: QVHLQQPGAELVRPGVSVKLSCKASGYTFTTYSINWMKQRPGQGLEWIGNIYPSTSHTNYNQKFRDKATMTVDKSSSTAYMQLSSPTSEDSAVYYCTINAYSMDYWGQGTSVTVSS
VL: QIVLTQSPEIMSASPGEKVTITCSASSSVSFMYWFQQKPGTSPKLWIYITSNLASGVPTRFSGSGSGTSYSLTISRMEAEDAATYYCQQRSSFPYTFGGGTKLEMKR
As to B6, the “Reactivity (OD 492 nm)” value in experiment [1] came to 0.09 OD units; in experiment [2] it was 0.71 OD units; in experiment [3] it was 0.09 OD units.

B7: HCV 208B-471 (antibody, V domains shown)
VH: QGQLQQSGPVLVKPGASEILYCKTSGFTFSSTYISWLKQKPGQSLEWIAWIYAGTGATNYNQKFTGKAQLTVDASSNTAYMHFSGLTPEDSAIYYCAISGAGVYWGQGTLVTVSA
VL: DVVMTQTPLSLPVSLGDQASISCRSSQSLLHSNGNTYLEWYLQKPGQSPNLLIYNVSNRFSGVPDRFSGSGSGTDFALKISRVGAEDLGVYYCFQGSHVPLTFGAGTKLELKR
Take B7: the “Reactivity (OD 492 nm)” value came to 0.11 OD units in experiment [1], 0.08 OD units in experiment [2] and 1.62 OD units in experiment [3].

B8: HCV 208B-672 (antibody, V domains shown)
VH: EVKLVESGGSLVQPGGSLKLSCAASGFNFNTYAMSWVRQTPEKRLEWVAYISNGGGNTYYVDTVKGRFTISRDNAKNTLYLRMSSLKSEDTAMYYCARHGLYWGYSMDYWGQGTSVTVSS
VL: DIQMTQSPSSLSASLGERVSLTCRASQDIGGSINWLQQEPDGTIKRLIYATSSLDSGVPKRFSGSRSGSDYSLTISSLESEDFVDYYCLQYASSPPTFGGGTKLEIKR
As for B8, the “Reactivity (OD 492 nm)” value in experiment [1] came out at 2.79 OD units; in experiment [2] it was 0.1 OD units; in experiment [3], 0.08 OD units.

B9: HCV 208B-178 (antibody, V domains shown)
VH: DVKLVESGGGLVKLGGSLKLSCAASGFTFSSYYMSWVRQTPEKRLELVAAINSNGGSTYYPDTVKGRFTISRDNAKNTLYLQMSSLKSEDTALYYCARHGGLGRRDWYFDVWGAGTTVTVSS
VL: DIVLTQSPASLAVSLGQRATISCRASESVDNYGISFMHWYQQKPGQPPKLLIYRASNLESGIPARFSGSGSRTDFTLTINPVETDDVATYYCQQSNKDPFTFGSGAKLEIKR
In the case of B9, the “Reactivity (OD 492 nm)” value in experiment [1] worked out at 0.07 OD units; in experiment [2] it was 1.69 OD units; in experiment [3], 0.1 OD units.

B10: HCV 208B-189 (antibody, V domains shown)
VH: QVHLQQSGAELAKPGASVQMSCKASGYTFTANKMHWARQRPRQGLEWIGYIDPASGYTEYNQKIKDRATLTADKSSSTAYMQLSSLTSEDSAVYYCTNFAYWGQGTLVTVST
VL: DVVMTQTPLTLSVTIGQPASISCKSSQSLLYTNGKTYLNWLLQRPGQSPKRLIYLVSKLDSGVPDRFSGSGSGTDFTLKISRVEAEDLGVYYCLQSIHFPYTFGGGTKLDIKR
On to B10, for which the “Reactivity (OD 492 nm)” value in experiment [1] is 0.15 OD units; in experiment [2], 3.95 OD units; in experiment [3], 0.55 OD units.

B11: HCV 208B-547 (antibody, V domains shown)
VH: B10 VH with H3Q, Q19K, A31S, R38K, R42G, A54S, R67K, T112A
VL: EVVLTQSPAITAASLGQKVTITCRASSSVSYMHWYRQKSGTSPQPWIYEISTLASGVPTRFRASGSGTSYSLTISSMEAEDAAIYYCQQWNYPLTFGAGTKLELKR
Turning to B11, the “Reactivity (OD 492 nm)” value in experiment [1] was 0.08 OD units; in experiment [2], 2.9 OD units; in experiment [3], 0.12 OD units.

B12: HCV 208B-793 (antibody, V domains shown)
VH: EVKLVESGGGLVQPGGSLKLSCAASGFTFSSYAMSWVRQTPERRLEWVTYISNGGGSTYYSDTVKGRFTFSRDNAKNTLYLQMSSLKSEDTAMYYCARHGLGRTGFASWGQGTLVTVSA
VL: DIVMTQSHKFMSTSVGDRVSITCKASQDVGTAVAWYQQKPGQSPKLLIYWASTRHTGVPDRFTGSGSGTDFTLTISNVQSEDLADYFCQQYSNYLTFGAGTKLEVKR
Regarding B12, the “Reactivity (OD 492 nm)” value in experiment [1] turned out to be 0.72 OD units; in experiment [2], 0.09 OD units; in experiment [3], 0.09 OD units.

B13: HCV 208B-327 (antibody, V domains shown)
VH: EVQLVESGGGLVKPGGSLKLSCAASGFTFSDSYMYWVRQTPDQRLEWVATISDGGSYTFYPDSVKGRFTISRDNAQNNLYLQMSSLKSEDTAMYYCASPHAGYFGWFAYWGRGTLVTVSA
VL: DIVMTQAAFSNPVTPGTSVSISCRSSKSLLHSNGITYLYWYLQKPGQSPQLLIYQMSKIASGVPDRFRSSGSGTDFTLRISRVEAADVGVYYCAQNLELPWTFGGGTKLEIKR
Take B13: the entries for the “Reactivity (OD 492 nm)” value in experiment [1], in experiment [2] and in experiment [3] were 0.05 OD units, 0.49 OD units and 0.07 OD units, respectively.

B14: HCV 208B-612 (antibody, V domains shown)
VH: EVQLQQSGPELVKPGASVKMSCKASGYRFTSYVMHWVRQKPGQGLEWIGYIDPHNDDTKYSEKFRGKATLTSDKSSTTAYMELSSLTSEDSAVYYCVRYSYDRDYSPMDYWGQGTSVTVSS
VL: QIVLTQSPTLMSASPGEKVTMTCSASSTVTYIYWYQQKPGSSPRLWMYDTFNLVSGVPARFSGSRSGTSYFLTISSMEGEDAATYYCQQYSDSPYTFGGGTKLEIKR
Turning to B14, the “Reactivity (OD 492 nm)” value in experiment [1] is 3.04 OD units; in experiment [2], 0.15 OD units; in experiment [3], 3.05 OD units.

B15: HCV 208B-517 (antibody, V domains shown)
VH: QVQLKQSGPGLVQPSQSLSITCTVSGFSLITHGVHWVRQSPGKGLEWLGVIWSGGSTDYNAAFISRLSISKDTSKSQVFLKMSSLQADDTAIYYCARNGGATAFDYWGQGTTLTVSS
VL: DIVMTQSPATLSVTPGDRVSLSCRASQSISDYLHWYQQKSHESPRLLIKYASQSISGIPSRFRGSGSGSHFTLSINSVEPEDVGVYYCQNGHSFPWTFGGGTKLEIKR
Take B15: the “Reactivity (OD 492 nm)” value in experiment [1] is 0.41 OD units; in experiment [2], 0.7 OD units; in experiment [3], 0.1 OD units.

B16: HCV 208B-822 (antibody, V domains shown)
VH: QVQLKQSGPGLVQPSQSLSITCTVSGFSLITYGVHWVRQSPGKGLEWLGVIWGGGSTGYNAAFVSRLNITKDNSKSQVFFKMNSLQPDDTAIYYCARNGGATVFDYWGQGTTLTVSS
VL: B15 VL with S28T, R63S
As to B16, the entries for the “Reactivity (OD 492 nm)” value in experiment [1], in experiment [2] and in experiment [3] were 1.35 OD units, 0.07 OD units and 0.08 OD units, respectively.

B17: HCV 208A-210 (antibody, V domains shown)
VH: QVQLQQSGPELVKPGASMRISCKASGYTFTSYYVHWIKQRPGQGLEWIGCIYPGDVNTDYNEKFKGKATLTADKSSSTAYMQVSTLTSEDSAIYFCVLYYYGSFAYWGQGTLVTVSA
VL: B11 VL with V2I, K18N, P45L, T52R, L53R, T59A, L104V
For B17, the “Reactivity (OD 492 nm)” value came out at 1.15 OD units in experiment [1], 0.05 OD units in experiment [2] and 0.06 OD units in experiment [3].
